Laboratory results from patent publication US20100041597A1, “PEPTIDES TARGETED TO PROTEIN KINASE C ISOFORMS AND USES THEREOF” (priority 2005, published 2010).

Molecular target: T1, PKC-ε (Homo sapiens, UniProt Q02156)
T1 sequence (Q02156 1-737): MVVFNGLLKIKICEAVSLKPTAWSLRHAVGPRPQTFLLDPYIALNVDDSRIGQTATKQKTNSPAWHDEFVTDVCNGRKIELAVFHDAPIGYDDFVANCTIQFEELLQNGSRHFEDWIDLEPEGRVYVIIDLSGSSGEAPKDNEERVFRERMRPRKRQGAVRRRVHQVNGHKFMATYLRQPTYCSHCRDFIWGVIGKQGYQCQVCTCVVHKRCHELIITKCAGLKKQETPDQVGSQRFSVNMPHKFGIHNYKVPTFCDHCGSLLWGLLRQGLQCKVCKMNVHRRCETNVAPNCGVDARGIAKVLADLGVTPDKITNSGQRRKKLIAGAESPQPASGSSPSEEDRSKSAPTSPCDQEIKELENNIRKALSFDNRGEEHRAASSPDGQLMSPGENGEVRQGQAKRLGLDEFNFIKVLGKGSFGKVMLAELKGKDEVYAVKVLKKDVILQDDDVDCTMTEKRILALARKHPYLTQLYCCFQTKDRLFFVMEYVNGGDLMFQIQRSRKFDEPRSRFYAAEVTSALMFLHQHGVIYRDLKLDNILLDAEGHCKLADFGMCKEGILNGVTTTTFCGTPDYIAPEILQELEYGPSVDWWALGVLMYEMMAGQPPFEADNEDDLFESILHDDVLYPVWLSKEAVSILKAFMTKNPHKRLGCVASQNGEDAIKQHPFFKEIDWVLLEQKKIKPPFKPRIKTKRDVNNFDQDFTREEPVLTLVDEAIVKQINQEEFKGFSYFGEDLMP
Experiment: ELISA-based competitive binding assay with purified PKC isoform
Design: key to Affinity for PKC isoform ε: —: no detectable affinity; Low to very low affinity at 10X or 20X or both PRE concentrations in at least one cell line in the cell extract assay; Low affinity in purified isoform assay.; Moderate affinity at 10X or 20X or both PRE concentrations in at least one cell line in the cell extract assay.; High affinity at 10X or 20X or both PRE concentrations in at least one cell line in the cell extract assay; High affinity in purified isoform assay
Conditions: for inhibition at 50 µM / inhibition at 100 µM / inhibition at 200 µM / calculated binding capacity (100-% n) after subtraction of the DMSO apparent binding capacity: purified PKC-ε; for inhibition at 50 µM / inhibition at 100 µM / inhibition at 200 µM: read-out: calculated binding capacity (100-% n) after subtraction of the DMSO apparent binding capacity; for Affinity for PKC isoform ε: Purified isoform, Table 20
Experimental: Peptides PRE 1, 2, 3, 4, 5, 6, 7, 8, 9, 10, 11, 12 and 13 (see Table 3) were tested for their ability to interfere with binding of PKC isoform-specific antibodies to their target PKC isoforms using a competitive binding assay and purified PKC isoforms.
Procedure: Competitive binding was assessed using a 96 well plate ELISA-based assay as described below.
Greiner 96 well ELISA plates were coated with the appropriate PKC isoform diluted in PBSN (PBS with Calcium/Magnesium+0.05% Sodium azide w/w). 50 μL/well at 250 ng/mL was used. Control wells contained PBSN only. Plates were incubated overnight at 4° C.
The plates were washed 3 times with 200 μL of dH2O per well, then 100 μL of blocking solution was added per well and the plate incubated for 1 h at 37° C. The washing steps with dH2O were repeated and 50 μL of the appropriate PRE solution (PRE stock solution [20 mM in DMSO] diluted in PBSN) was added and the plate incubated for 1 h at room temperature.
After incubation, 5 μL of 1.1:400 anti-PKC (isoform specific antibody) was added per well (to provide a final concentration of 1:4000). For PKC-epsilon, 1.1:800 dilution was used and for PKC-zeta a 1.1:100 dilution was used due to high and low binding affinity, respectively. The plates were then incubated 1 h at room temperature, followed by washing with dH2O as described above.
50 μL of 1:1000 dilution of Alkaline Phosphatase (AP) conjugated antibody (anti-rabbit for all except zeta, which was anti-goat) was then added and the plate incubated for 1 h at room temperature. Washing with dH2O was then repeated. Finally, 100 μL of pNPP solution in pNPP buffer (2 mM MgCl2, 100 mM Sodium bicarbonate in water, pH 9.8) was added to all wells and incubated for 8 minutes for α, βI, βII ε, and ζ, or for 15-20 mins for […] (until sufficient coloration is observed). The reaction was stopped by addition of Stop solution (2N NaOH) and the absorbance at 405 nm was read on a Galaxy Plate reader.
Controls were PKC without PRE; blank controls, and controls containing the final concentrations of DMSO used for solubilizing the PREs. The non-specific binding capacity related to DMSO was also measured.
The antibodies used were as follows: anti-PKC α (Cat. No. SC-208); anti-PKC βI (Cat. No. SC-209); anti-PKC βII (Cat. No. SC-210); anti-PKC δ (Cat. No. SC-213); anti-PKC ε (Cat. No. SC-214); anti-PKC ζ (Cat. No. SC-216-G) (all from Santa Cruz Biotechnology, Inc.). The AP-conjugated antibodies were obtained from Jackson Immuno Research Laboratories (West Grove, Pa.).
Calculations: The OD values measured at 405 nm represent the free PKC coated per well.
OD405 PKC alone−Blank OD405 of each sample=OD405 coated isoform
(OD405 of sample X/OD405 coated isoform)×100=% n that represents the percentage of X binding compared to control.
100-% n measures the relative binding capacity of X towards the tested isoform.
The apparent binding capacity of the DMSO samples was then subtracted from X binding capacity.
All measurements were made in triplicate and the values in the table represent the averaged calculated binding capacity values after subtraction of the DMSO apparent binding capacity (averaged from 12 values, respectively 10.80, 11.20 and 16.40 corresponding to the concentrations of DMSO used to dilute the […] at 200, 100 and 50 μM respectively). The results allow for quantitative comparison of the binding capacity of each PRE towards an individual isoform within each table, but not among isoforms due to differences in sensitivity of the specific antibodies toward the secondary antibody. This applies particularly to PKC-delta. As noted above, the colour development duration was increased 2-3 times and, as a result, the OD405 measurements may be overestimated for this isoform.

Q: What does the source list for Ac-AKGIQEVKGGDAQNLIGISI-NH2 [PRE 3]?
A: inhibition at 50 µM (PRE 50 μM): 34%; inhibition at 100 µM (PRE 100 μM): 31.5%; inhibition at 200 µM (PRE 200 μM): 31%; Affinity for PKC isoform ε: H; targeting of PKC-ε (purified isoform, Tables 14-19): targeted most strongly

Q: Which inhibition at 50 µM (PRE 50 μM) does the source give for Ac-AKGIQEVKGGKDAQNLIGISI-NH2 [PRE 5] here?
A: The inhibition at 50 µM was 0%.

Q: What about the inhibition at 100 µM (PRE 100 μM) of the same substance?
A: The inhibition at 100 µM was 0%.

Q: And the inhibition at 200 µM (PRE 200 μM)?
A: Its inhibition at 200 µM is 1.8%.

Q: What about the “Affinity for PKC isoform ε” value of the same substance?
A: The value was “—”.

Q: With Ac-ISIGILNQADK-NH2 [PRE 10] as the substance, how does the “calculated binding capacity (100-% n) after subtraction of the DMSO apparent binding capacity” value (shortened to “calculated binding capacity (100-% n)”) (PRE 50 μM) read?
A: Its value is 0.91.

Q: What about the “calculated binding capacity (100-% n)” value (PRE 200 μM) of the same substance?
A: The value was 1.75.

Q: What about the “Affinity for PKC isoform ε” value of the same substance?
A: Its value is “—”.

Q: How did the “Affinity for PKC isoform ε” value turn out when Ac-ISIGILQNADK-NH2 [PRE 7] was run?
A: Its value is “L”.

Q: For Ac-KDANQLIGISI-NH2 [PRE 6], which “calculated binding capacity (100-% n)” value (PRE 50 μM) is on record?
A: Its value is 2.61.

Q: What about the “calculated binding capacity (100-% n)” value (PRE 100 μM) of the same substance?
A: The value was 0.46.

Q: What about the “Affinity for PKC isoform ε” value of the same substance?
A: Its value is “—”.

Q: For Ac-KDAQNLI-NH2 [PRE 12], which “Affinity for PKC isoform ε” value is on record?
A: The value was “—”.

Q: With “Ac-KDAQNLIGISI-NH2 [PRE 4, Ac-KDAQNLIGISI-NH2]” as the substance, how does the inhibition at 50 µM (PRE 50 μM) read?
A: The inhibition at 50 µM was 0%.

Q: And the inhibition at 100 µM (PRE 100 μM)?
A: The inhibition at 100 µM was 0%.

Q: What about the inhibition at 200 µM (PRE 200 μM) of the same substance?
A: Its inhibition at 200 µM is 2.58%.

Q: And the “Affinity for PKC isoform ε” value?
A: Its value is “—”.

Q: Which “Affinity for PKC isoform ε” value does the source give for Ac-RDAQNLI-NH2 [PRE 13] here?
A: The value was “—”.

Q: Ac-RDAQNLIGISI-NH2 [PRE 11] was tested. Which “Affinity for PKC isoform ε” value did it give?
A: Its value is “L”.

Q: With Ac-isigilgnadk-NH2 [PRE 9] as the substance, how does the “calculated binding capacity (100-% n)” value (PRE 50 μM) read?
A: The value was 16.35.

Q: And the “calculated binding capacity (100-% n)” value (PRE 100 μM)?
A: The value was 8.53.

Q: What about the “Affinity for PKC isoform ε” value of the same substance?
A: Its value is “L”.

Q: ILEDKGGDAQNLIGISI [PRE 8] was tested. Which “Affinity for PKC isoform ε” value did it give?
A: Its value is “—”.

Q: Which “calculated binding capacity (100-% n)” value (PRE 100 μM) does the source give for RRKKGGKDFVVKR [PRE 1] here?
A: The value was 5.47.

Q: What about the “calculated binding capacity (100-% n)” value (PRE 200 μM) of the same substance?
A: Its value is 0.83.

Q: What about the “Affinity for PKC isoform ε” value of the same substance?
A: Its value is “—”.
